Reference: paper PMC4703059

Target: Full-length wt Lst7 (K. lactis) with C-terminal Strep tag (Kluyveromyces lactis)
Assay: AUC + SEC-MALS; purified K. lactis Lst7/Lst4 complex; AUC sedimentation velocity with interference data at 0.15 mg/ml, SEDFIT; SEC-MALS of 50 µg in 50 µl on TSKgel SuperSW2000 in PBS, 0.35 ml/min

- stoichiometry N: 1
B1: Engineered Lst4 (K. lactis) aa58-714 with a deletion of the intra-DENN loop (aa 388-534) (domain or fragment)
chain: NDRLHNGGFRLIISQELGHVTSRNNYQVVLDHSSVNFHTGAHIPLNELKDYIFGSSIRTIDYSASSDKIKVVKSANIVLFTRIFYLNEKSTLRIAISCCVTDDVLPVLTECWPHISSFLDQCENTLLKYLAKNDTQFLPHDWKARNCIEVAAVLQTFQRKIIPLLSGYSDTPRLFLYPMDSIPYIKTWVKYVTNWIELKDGPRVRFLPILLAKLRYDFASLLKENSNTRIVILTGNMNVANRLIFILTAFLGPHFRGTLHKSINSQGCPSPAGRKMSNMSGASDFPFELKPSNSSITETNKGWEIPRIKRDPTFSVTSVSSDETGVQTFILNDAFADLVIDPPSYDTTVSNEKHGEIVEVNMASPRKQRNNQNQELLRRFTSYTPHYNQWFQLQACQITTESENKVIHSMKRDLTYADQDPCKKDKSTSTLLISLRSREIKQVTIVRDTNNRFIQRTKKILQNGKVGPVSRAMLSGIETTDQHLKKLMECNNDNEALVSLFNDIVTCAST
